Results as given in US20230279121A1.
Each block holds one molecule with its values, some of them ahead of it.

Key:
[1] = biological target: Rhesus macaque EGFR (Rhesus macaque) (UniProt P55245); assay: SPR
human EGFR (human) = human EGFR (human) (UniProt P00533); assay: SPR
[2] = biological target: recombinant human EGFR-His (human) (UniProt P00533); assay: SPR, Biacore 8K, 37 C; protein captured on anti-hFc IgG chip, EGFR-His injected; N = 4

Kd [1]: 5.36 nM
koff [1]: 0.00112 s⁻¹
kon [1]: 209000 M⁻¹ s⁻¹
Kd (human EGFR (human)): 3.38 nM
koff (human EGFR (human)): 0.00099 s⁻¹
kon (human EGFR (human)): 293000 M⁻¹ s⁻¹
Molecule: PANI-H_S62R-L_F87Y-L_D92R (scFv)

Kd [2]: 2.36 nM
koff [2]: 0.000745 s⁻¹
kon [2]: 316000 M⁻¹ s⁻¹
B1: EGFR-Protein-4 (bispecific antibody, part only; not given: unrelated Fab, Fc and junctions, not shown: another chain or arm of the molecule; a dimerising Fc or GST)
scFv: DIQMTQSPSSLSASVGDRVTITCQASQDISNYLNWYQQKPGKAPKLLIYDASNLETGVPSRFSGSGSGTDFTFTISSLQPEDIATYYCQHFRHLPLAFGCGTKVEIKGGGGSGGGGSGGGGSGGGGSQVQLQESGPGLVKPSETLSLTCTVSGGSVSSGDYYWTWIRQSPGKCLEWIGHIYYSGNTNYNPSLKSRLTISIDTSKTQFSLKLSSVTAADTAIYYCVRDRVTGAFDIWGQGTMVTVSS
